Measured values reported in patent US20240182536A1 (MURAL ONCOLOGY, published 2024).
Positions count from the first letter of the chain named. Names may count otherwise.

Assays:
[1] = target: T1, mouse IL-18 binding protein (mouse, UniProt Q9Z0M9 29-193); experiment: cell-based or functional assay
T1 sequence (looked up): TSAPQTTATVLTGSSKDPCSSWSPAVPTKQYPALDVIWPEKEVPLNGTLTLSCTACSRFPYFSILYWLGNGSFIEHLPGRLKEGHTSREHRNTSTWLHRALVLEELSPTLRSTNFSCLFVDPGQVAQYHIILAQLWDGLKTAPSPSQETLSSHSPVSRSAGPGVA

[2] = target: T2, mouse IL-18 receptors on PathHunter U2OS mIL18-NF-kb reporter cells (mouse, UniProt Q61098 20-537; Q9Z2B1 20-614); experiment: cell-based or functional assay
T2 sequence (looked up) 1: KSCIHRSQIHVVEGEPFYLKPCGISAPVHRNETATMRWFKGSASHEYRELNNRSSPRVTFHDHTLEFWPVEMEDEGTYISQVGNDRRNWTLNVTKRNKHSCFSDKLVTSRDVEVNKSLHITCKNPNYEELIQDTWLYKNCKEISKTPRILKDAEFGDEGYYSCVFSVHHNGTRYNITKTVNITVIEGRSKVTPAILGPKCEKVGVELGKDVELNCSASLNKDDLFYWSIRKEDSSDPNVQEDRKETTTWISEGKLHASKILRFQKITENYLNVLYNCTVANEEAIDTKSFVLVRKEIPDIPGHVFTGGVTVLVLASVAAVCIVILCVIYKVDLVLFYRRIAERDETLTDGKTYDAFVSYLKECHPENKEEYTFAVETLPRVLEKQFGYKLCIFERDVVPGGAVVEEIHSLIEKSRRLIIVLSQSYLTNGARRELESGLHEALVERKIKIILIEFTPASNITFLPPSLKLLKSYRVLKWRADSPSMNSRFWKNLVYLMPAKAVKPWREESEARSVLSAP
T2 sequence (looked up) 2: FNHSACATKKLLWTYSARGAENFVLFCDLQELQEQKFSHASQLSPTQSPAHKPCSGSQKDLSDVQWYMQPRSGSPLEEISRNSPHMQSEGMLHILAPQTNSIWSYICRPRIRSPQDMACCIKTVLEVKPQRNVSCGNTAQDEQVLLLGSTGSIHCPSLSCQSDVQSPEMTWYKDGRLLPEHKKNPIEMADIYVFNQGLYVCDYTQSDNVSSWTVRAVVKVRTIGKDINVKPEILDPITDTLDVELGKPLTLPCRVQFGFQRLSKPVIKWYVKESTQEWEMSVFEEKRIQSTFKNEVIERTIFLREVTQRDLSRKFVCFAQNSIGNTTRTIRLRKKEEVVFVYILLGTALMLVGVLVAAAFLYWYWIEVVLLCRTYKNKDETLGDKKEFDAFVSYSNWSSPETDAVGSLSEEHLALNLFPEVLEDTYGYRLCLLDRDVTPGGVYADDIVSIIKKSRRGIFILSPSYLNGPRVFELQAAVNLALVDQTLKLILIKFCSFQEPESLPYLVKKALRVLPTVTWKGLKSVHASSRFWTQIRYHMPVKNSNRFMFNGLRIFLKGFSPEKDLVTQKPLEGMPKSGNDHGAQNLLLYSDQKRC

[3] = target: T3, IL-18 receptors on HEK-Blue IL-18 reporter cells (InvivoGen) (UniProt Q13478 19-541; O95256 20-599); experiment: cell-based or functional assay
T3 sequence (looked up) 1: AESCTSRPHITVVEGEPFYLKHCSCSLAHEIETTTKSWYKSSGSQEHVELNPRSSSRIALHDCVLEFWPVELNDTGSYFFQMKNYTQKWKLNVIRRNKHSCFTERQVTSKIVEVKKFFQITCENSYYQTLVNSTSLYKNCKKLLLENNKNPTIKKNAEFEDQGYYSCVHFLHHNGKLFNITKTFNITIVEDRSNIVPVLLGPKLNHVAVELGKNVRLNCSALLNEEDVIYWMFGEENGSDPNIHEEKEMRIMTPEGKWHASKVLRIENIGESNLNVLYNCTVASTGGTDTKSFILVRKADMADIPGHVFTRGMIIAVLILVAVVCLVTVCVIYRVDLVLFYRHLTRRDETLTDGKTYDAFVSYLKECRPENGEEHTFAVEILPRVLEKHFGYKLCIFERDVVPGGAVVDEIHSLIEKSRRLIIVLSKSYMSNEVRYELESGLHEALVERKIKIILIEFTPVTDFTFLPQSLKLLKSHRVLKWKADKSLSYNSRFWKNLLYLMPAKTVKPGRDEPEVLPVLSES
T3 sequence (looked up) 2: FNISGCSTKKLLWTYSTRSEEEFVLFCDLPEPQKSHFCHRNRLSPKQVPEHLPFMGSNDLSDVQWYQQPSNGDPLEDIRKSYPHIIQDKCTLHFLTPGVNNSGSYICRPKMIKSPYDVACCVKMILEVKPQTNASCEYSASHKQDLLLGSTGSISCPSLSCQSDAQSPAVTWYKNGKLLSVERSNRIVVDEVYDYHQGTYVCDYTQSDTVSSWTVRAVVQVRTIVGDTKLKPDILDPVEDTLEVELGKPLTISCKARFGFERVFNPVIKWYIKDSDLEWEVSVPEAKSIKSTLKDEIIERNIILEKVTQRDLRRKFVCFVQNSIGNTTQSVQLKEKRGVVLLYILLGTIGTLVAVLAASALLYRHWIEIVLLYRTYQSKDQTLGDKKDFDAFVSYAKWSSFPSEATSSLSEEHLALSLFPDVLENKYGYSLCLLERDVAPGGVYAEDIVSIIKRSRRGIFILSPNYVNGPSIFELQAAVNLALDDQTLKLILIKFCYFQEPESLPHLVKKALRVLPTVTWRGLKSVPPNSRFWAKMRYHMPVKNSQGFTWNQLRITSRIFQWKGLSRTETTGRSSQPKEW

[4] = target: T4, human IL-18 binding protein (IL-18BP) (human, UniProt O95998 31-194); experiment: cell-based or functional assay
T4 sequence (looked up): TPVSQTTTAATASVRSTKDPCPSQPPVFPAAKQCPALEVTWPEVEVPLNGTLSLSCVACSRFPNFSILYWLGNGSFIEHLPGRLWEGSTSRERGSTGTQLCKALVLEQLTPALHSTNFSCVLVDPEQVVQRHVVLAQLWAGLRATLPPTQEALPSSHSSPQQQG

[5] = target: T4, human IL-18 binding protein (IL-18BP); experiment: Octet BLI
Method: (§1) Octet 96red instrument was used to determine affinities of IL18 proteins to BP or receptors. 5-10 ug/ml analyte proteins were used for loading on Sartorius tips (AHC or SA). […] 120-180 s loading, 200 s association and 800 s dissociation were used for kinetics. 3-7 data points were used to calculate affinities.

[6] = target: T5, human IL-18R alpha/beta pair (IL-18Rab) (human, UniProt Q13478 19-329; O95256 20-356); experiment: Octet BLI
T5 construct: also called hu IL-18Rab
T5 sequence (looked up) 1: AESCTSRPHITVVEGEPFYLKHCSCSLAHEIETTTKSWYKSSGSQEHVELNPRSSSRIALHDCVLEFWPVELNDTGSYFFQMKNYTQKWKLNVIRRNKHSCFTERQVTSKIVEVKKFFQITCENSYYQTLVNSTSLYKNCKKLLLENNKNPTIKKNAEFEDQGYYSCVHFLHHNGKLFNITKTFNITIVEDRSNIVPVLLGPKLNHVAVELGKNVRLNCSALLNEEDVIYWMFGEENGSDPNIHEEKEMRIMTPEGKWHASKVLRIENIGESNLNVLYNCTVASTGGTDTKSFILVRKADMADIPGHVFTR
T5 sequence (looked up) 2: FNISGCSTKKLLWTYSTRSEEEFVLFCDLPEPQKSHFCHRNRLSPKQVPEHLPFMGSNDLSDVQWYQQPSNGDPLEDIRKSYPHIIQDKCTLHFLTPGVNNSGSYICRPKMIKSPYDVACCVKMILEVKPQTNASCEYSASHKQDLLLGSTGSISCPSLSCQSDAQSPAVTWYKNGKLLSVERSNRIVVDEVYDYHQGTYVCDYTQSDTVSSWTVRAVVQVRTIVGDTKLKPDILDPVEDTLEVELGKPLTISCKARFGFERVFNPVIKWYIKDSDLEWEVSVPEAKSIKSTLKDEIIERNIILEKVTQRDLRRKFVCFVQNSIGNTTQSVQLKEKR
Method: as §1

[7] = target: T6, human IL-18 receptor alpha (IL-18Rα) (human, UniProt Q13478 19-329, limits assumed); experiment: Octet BLI
T6 construct: also called hu IL-18Ra; IL-18R alpha
T6 sequence (looked up): T5 sequence (looked up) 1
Method: as §1

[8] = target: T3, IL-18 receptors on HEK-Blue IL-18 …; experiment: cell-based or functional assay; remark: listed apart in the source
[9] = target: T4, human IL-18 binding protein (IL-18BP); experiment: cell-based or functional assay; remark: listed apart in the source
[10] = target: T7, interleukin 18 binding protein (IL-18BP) (UniProt O95998 31-194); experiment: cell-based or functional assay
T7 sequence (looked up): T4 sequence (looked up)

[11] = target: T8, IL-18 receptors on HEK-Blue IL-18 reporter cells (UniProt Q13478 19-541; O95256 20-599, limits assumed); experiment: cell-based or functional assay
T8 sequence (looked up) 1: T3 sequence (looked up) 1
T8 sequence (looked up) 2: T3 sequence (looked up) 2

[12] = target: T9, interleukin 18 binding protein (IL-18BP) (UniProt O95998 31-194); experiment: cell-based or functional assay; remark: listed apart in the source
T9 sequence (looked up): T4 sequence (looked up)

B1: Comparator 5 (ligand)
chain: HFGRLHCTTAVIRNINDQVLFVDKRQPVFEDMTDIDQSASEPQTRLIIYAYGDSRARGKAVTLSVKDSKMSTLSCKNKIISFEEMDPPENIDDIQSDLIFFQKRVPGHNKMEFESSLYEGHFLACQKEDDAFKLILKKKDENGDKSVMFTLTNLHQS
mouse IL-18 reporter assay EC50, +Mouse IL-18BP 50 nM [1]: 0.00091 nM
mouse IL-18 reporter assay EC50, without mouse IL-18BP [2]: 0.00149 nM

B2: IL-18 variant G3V, E6K, K53A (ligand)
chain: YFVKLKSKLSVIRNLNDQVLFIDQGNRPLFEDMTDSDMRDNAPRTIFIISMYADSQPRGMAVTISVKSEKISTLSSENKIISFKEMNPPDNIKDTKSDIIFFQRSVPGHDNKMQFESSSYEGYFLASEKERDLFKLILKKEDELGDRSIMFTVQNED
notes: also called G3V, K53A, E6K
HEK-Blue Activity Assay Ec50 (pM), -hu IL-18BP [3]: 0.02 pM
HEK-Blue Activity Assay Ec50 (pM), +300 nM hu IL-18BP [4]: 1.71 pM
Kd [5]: 19 nM
Kd [6]: 0.27 nM
Kd [7]: 52 nM
HEK-Blue EC50 pM, NO BP (50 nM BP run) [8]: 0.04 pM
HEK-Blue EC50 pM, NO BP (300 nM BP run) [8]: 0.02 pM
Fold Change (BP/NO BP), 50 nM BP [9]: 8.67 fold
Fold Change (BP/NO BP), 300 nM BP [9]: 74.8 fold
HEK-Blue EC50 pM, +50 nM BP [9]: 0.33 pM
HEK-blue EC50 (pM) + 300 nM BP [9]: 1.71 pM

B3: IL-18 variant G3E, E6A, K53Q, D54W, S55V, T63M, N91M, R104N (ligand)
chain: B2 chain with V3E, K6A, A53Q, D54W, S55V, T63M, N91M, R104N
Ratio (-BP/+BP), DF-1000005 [10]: 0.97
Ratio (-BP/+BP), DF-5000006 [10]: 1.03
Ratio (-BP/+BP), DF-25000007 [10]: 0.99

B4: IL-18 variant K53T, S55P (ligand)
chain: B2 chain with V3G, K6E, A53T, S55P
HEK-blue EC50 (pM) - BP [11]: 103 pM
HEK-blue EC50 (pM) + 300 nM BP [12]: 133 pM
Ratio [12]: 1.3

B5: IL-18 variant K53S, S55Y (ligand)
chain: B2 chain with V3G, K6E, A53S, S55Y
HEK-blue EC50 (pM) - BP [11]: 70 pM
HEK-blue EC50 (pM) + 300 nM BP [12]: 136 pM
Ratio [12]: 1.9

B6: IL-18 variant K53S, S55G (ligand)
chain: B2 chain with V3G, K6E, A53S, S55G
HEK-blue EC50 (pM) - BP [11]: 33.4 pM
HEK-blue EC50 (pM) + 300 nM BP [12]: 103 pM
Ratio [12]: 3.1

B7: IL-18 variant K53H, S55V (ligand)
chain: B2 chain with V3G, K6E, A53H, S55V
HEK-blue EC50 (pM) - BP [11]: 45.5 pM
HEK-blue EC50 (pM) + 300 nM BP [12]: > 200 pM
Ratio [12]: 10.1

B8: IL-18 variant K53S, S55K (ligand)
chain: B2 chain with V3G, K6E, A53S, S55K
HEK-blue EC50 (pM) - BP [11]: 21.8 pM
HEK-blue EC50 (pM) + 300 nM BP [12]: 18.1 pM
Ratio [12]: 0.8

B9: IL-18 variant K53T, S55A (ligand)
chain: B2 chain with V3G, K6E, A53T, S55A
HEK-blue EC50 (pM) - BP [11]: 67.4 pM
HEK-blue EC50 (pM) + 300 nM BP [12]: 140 pM
Ratio [12]: 2.1

B10: IL-18 variant G3N, E6Y, K53Q, D54W, S55R, N91T, R104P (ligand)
chain: B2 chain with V3N, K6Y, A53Q, D54W, S55R, N91T, R104P
Ratio (-BP/+BP), DF-1000005 [10]: 1.02
Ratio (-BP/+BP), DF-5000006 [10]: 0.93
Ratio (-BP/+BP), DF-25000007 [10]: 1.03
